According to paper doi:10.1101/2024.06.27.600912 (bioRxiv, 2024):

Biological target: the molecule itself
Assay: cryo-EM structure

| Protein | binding result |
| --- | --- |
| MORC2 phosphodead mutant (S725A, S730A, S739A, S743A, S777A, S779A), full length (natural protein) MAFTNYSSLNRAQLTFEYLHTNSTTHEFLFGALAELVDNARDADATRIDIYAERREDLRGGFMLCFLDDGAGMDPSDAASVIQFGKSAKRTPESTQIGQYGNGLKSGSMRIGKDFILFTKKEDTMTCLFLSRTFHEEEGIDEVIVPLPTWNARTREPVTDNVEKFAIETELIYKYSPFRTEEEVMTQFMKIPGDSGTLVIIFNLKLMDNGEPELDIISNPRDIQMAETSPEGTKPERRSFRAYAAVLYIDPRMRIFIHGHKVQTKRLSCCLYKPRMYKYTSSRFKTRAEQEVKKAEHVARIAEEKAREAESKARTLEVRLGGDLTRDSRVMLRQVQNRAITLRREADVKKRIKEAKQRALKEPKELNFVFGVNIEHRDLDGMFIYNCSRLIKMYEKVGPQLEGGMACGGVVGVVDVPYLVLEPTHNKQDFADAKEYRHLLRAMGEHLAQYWKDIAIAQRGIIKFWDEFGYLSANWNQPPSSELRYKRRRAMEIPTTIQCDLCLKWRTLPFQLSSVEKDYPDTWVCSMNPDPEQDRCEASEQKQKVPLGTFRKDMKTQEEKQKQLTEKIRQQQEKLEALQKTTPIRSQADLKKLPLEVTTRPSTEEPVRRPQRPRSPPLPAVIRNAPSRPPSLPTPRPASQPRKAPVISSTPKLPALAAREEASTSRLLQPPEAPRKPANTLVKTASRPAPLVQQLSPSLLPNSKSPREVPSPKVIKTPVVKKTEAPIKLAPATPSRKRAVAVADEEEVEEEAERRKERCKRGRFVVKEEKKDSNELADAAGEEDSADLKRAQKDKGLHVEVRVNREWYTGRVTAVEVGKHVVRWKVKFDYVPTDTTPRDRWVEKGSEDVRLMKPPSPEHQSLDTQQEGGEEEVGPVAQQAIAVAEPSTSECLRIEPDTTALSTNHETIDLLVQILRNCLRYFLPPSFPISKKQLSAMNSDELISFPLKEYFKQYEVGLQNLCNSYQSRADSRAKASEESLRTSERKLRETEEKLQKLRTNIVALLQKVQEDIDINTDDELDAYIEDLITKGD | binds |
| full-length MORC2 ATPase-dead mutant S87A (natural protein) MAFTNYSSLNRAQLTFEYLHTNSTTHEFLFGALAELVDNARDADATRIDIYAERREDLRGGFMLCFLDDGAGMDPSDAASVIQFGKAAKRTPESTQIGQYGNGLKSGSMRIGKDFILFTKKEDTMTCLFLSRTFHEEEGIDEVIVPLPTWNARTREPVTDNVEKFAIETELIYKYSPFRTEEEVMTQFMKIPGDSGTLVIIFNLKLMDNGEPELDIISNPRDIQMAETSPEGTKPERRSFRAYAAVLYIDPRMRIFIHGHKVQTKRLSCCLYKPRMYKYTSSRFKTRAEQEVKKAEHVARIAEEKAREAESKARTLEVRLGGDLTRDSRVMLRQVQNRAITLRREADVKKRIKEAKQRALKEPKELNFVFGVNIEHRDLDGMFIYNCSRLIKMYEKVGPQLEGGMACGGVVGVVDVPYLVLEPTHNKQDFADAKEYRHLLRAMGEHLAQYWKDIAIAQRGIIKFWDEFGYLSANWNQPPSSELRYKRRRAMEIPTTIQCDLCLKWRTLPFQLSSVEKDYPDTWVCSMNPDPEQDRCEASEQKQKVPLGTFRKDMKTQEEKQKQLTEKIRQQQEKLEALQKTTPIRSQADLKKLPLEVTTRPSTEEPVRRPQRPRSPPLPAVIRNAPSRPPSLPTPRPASQPRKAPVISSTPKLPALAAREEASTSRLLQPPEAPRKPANTLVKTASRPAPLVQQLSPSLLPNSKSPREVPSPKVIKTPVVKKTESPIKLSPATPSRKRSVAVSDEEEVEEEAERRKERCKRGRFVVKEEKKDSNELSDSAGEEDSADLKRAQKDKGLHVEVRVNREWYTGRVTAVEVGKHVVRWKVKFDYVPTDTTPRDRWVEKGSEDVRLMKPPSPEHQSLDTQQEGGEEEVGPVAQQAIAVAEPSTSECLRIEPDTTALSTNHETIDLLVQILRNCLRYFLPPSFPISKKQLSAMNSDELISFPLKEYFKQYEVGLQNLCNSYQSRADSRAKASEESLRTSERKLRETEEKLQKLRTNIVALLQKVQEDIDINTDDELDAYIEDLITKGD | binds |
